Source: US20230398228A1, “ERIBULIN-BASED ANTIBODY-DRUG CONJUGATES AND METHODS OF USE” (EISAI R&D MANAGEMENT CO., LTD., priority 2016, published 2023)

Experiments:
[1] = test system: A431 cells; test: Crystal Violet cytotoxicity assay (Example 4), A431 (parental); format: cell-based, human; details: mean of replicate experiments, read-out: Cytotoxicity IC50 (nM), A431 (FR^neg, MSLN^neg)
[2] = DAR analysis by HIC-HPLC
Description: Samples were injected onto a TSKgel® Ether-5 PW, 7.5 mm ID×7.5 cm, 10 μM pore size, and eluted from the column with a 3 min equilibration in 100% of mobile phase A, a 15 min gradient (0-100% B), a 5 min hold in 100% B, a 1 min change to 100% A, and a 5 min re-equilibration in 100% of mobile phase A, at 0.7 mL/min. Mobile phase A was 25 mM sodium phosphate, 1.5 M ammonium sulfate, pH 7.0. Mobile phase B was 25 mM sodium phosphate, 25% isopropanol, pH 7.0. Detection was done at 280 nm (reference 320 nm). DAR was determined by the formula:
[AUC+1+2(AUC+2)+3(AUC+3)+ . . . n(AUC+n)]/ΣAUCtot]
where AUC+1 is the area under the curve for the mAb peak corresponding to ADC conjugated with one cytotoxin, AUC+2 is the area under the curve for the mAb peak corresponding to ADC conjugated with two cytotoxins, etc. ΣAUCtot is the combined area under the curve for all peaks.
DAR was analyzed using hydrophobic interaction HPLC (HIC-HPLC). Samples were injected onto a TSKgel® Butyl-NP5, 4.6 mm ID×3.5 cm, 2.5 μM nonporous size column (Tosoh Bioscience), and eluted with a 3 min equilibration in 100% of mobile phase A, a 15 min gradient (0-100% B), a 5 min hold in 100% B, a 1 min change to 100% A, and a 5 min re-equilibration in 100% of mobile phase A, at 0.7 mL/min. Mobile phase A was 25 mM sodium phosphate, 1.5 M ammonium sulfate, pH 7.0. […] DAR was determined by the formula: […]

[3] = test system: NCI-H2110 cells; test: Crystal Violet cytotoxicity assay (Example 4), NCI-H2110; format: cell-based, human; details: mean of replicate experiments, read-out: Cytotoxicity IC50 (nM), NCI-H2110 (FR^med, MSLN^med)
Description: Test reagents were serial diluted 1:3 in 2 mL deep-well dilution plates, starting at 200 nM (10 dilutions total). […] Medium was then discarded. […] Plates were read at 570 nm. Data was analyzed using GraphPad Prism 6.

[4] = SEC-HPLC aggregation analysis; format: physicochemical
Description: The antibody aggregation was analyzed by size-exclusion, high-performance liquid chromatography (SEC-HPLC) using an Agilent 1100. The mAb was diluted to 1 mg/mL in DPBS. The antibody (20 μL) was injected onto a TSKgel® SuperSW guard column (4.6 mm×3.5 cm, 4 μm pore size, Tosoh Bioscience), followed by a TSKgel® SuperSW3000 column (4.6 mm×30 cm, 4 μm pore size), eluted from the column with 0.1 M sodium phosphate containing 0.15 M NaCl and 0.05% NaN3, at pH 7.4, at a flow rate of 0.3 mL/min for 20 min. All data were analyzed using Agilent ChemStation software. Percent aggregation was calculated as [PAaggregate/PAtotal]*100, where PA=integrated peak area.
ADC was diluted to 1 mg/mL in DPBS. ADC (10 μL) was then injected onto an Advanced SEC 300A guard column (4.6 mm×3.5 cm, 2.7 μm pore size, Agilent), followed by a AdvancedBio 300A column (4.6 mm×30 cm, 2.7 μm pore size). ADC was eluted from the column with 0.1 M sodium phosphate containing 0.15 M NaCl and 5% IPA, pH 7.4 at a flow rate of 0.25 mL/min for 28 min. All data were analyzed using Agilent ChemStation software. Percent aggregation was calculated as [PAaggregate/PAtotal]*100, where PA=integrated peak area.

[5] = target: human mesothelin (Homo sapiens, UniProt Q13421); test: ELISA, mesothelin; format: binding; details: MORAb-009 and its ADCs; for EC50: read-out: Antigen Binding ELISA, EC50
Description: Recombinant human mesothelin was diluted to 1 μg/mL in coating buffer (50 mM carbonate-bicarbonate buffer, pH 9.6), and coated onto 96-well Maxisorp black plates (Thermo, Cat No. 43711, 100 μL/well) at 4° C., overnight. Coating solution was discarded and the plates were washed three times using 1×PBS with 0.05% Tween-20 (PBST) buffer. Plates were blocked in 300 μL blocking buffer (1% BSA in PBST) at room temperature for 2 hours on an orbital shaker. […] Blocking buffer was discarded and 100 μL/well of diluted antibody was added to the plates. Plates were incubated at room temperature for 2 hours on an orbital shaker. Antibody solution was discarded and plates were washed three times using PBST. 100 μL/well of goat-anti-human IgG (H+L)-HRP (1:10,000 dilution in blocking buffer) solution was added to the plates, and plates were incubated at room temperature for 1 hour on an orbital shaker. Secondary antibody solution was discarded and plates were washed three times using PBST. 100 μL/well of QuantaBlu fluorogenic peroxidase substrate working solution (Thermo, Cat No. 15169) was added to the plates, and plates were incubated at room temperature for 30 min. Fluorescence was read at excitation 325 nm/emission 420 nm using a SpectraMax M5 (Molecular Devices). Data was analyzed using SoftMaxPro 5.4.2 software with 4-parameter fitting.

MORAb009-PEG2-eribulin
IC50 [1]: > 100 nM
DAR (HIC-HPLC) [2]: 4.30
IC50 [3]: 50 nM
SEC-HPLC Analysis % Aggr. [4]: 1.15%
SEC-HPLC Analysis % Frag. [4]: 1.74%
SEC-HPLC Analysis % Monomer [4]: 97.11%
Antigen Binding ELISA, EC50 [5]: 0.00884 µg/mL
EC50 [5]: 0.06 nM

MORAb009-PEG4-eribulin
IC50 [1]: > 100 nM
DAR (HIC-HPLC) [2]: 4.57
IC50 [3]: 31.6 nM
SEC-HPLC Analysis % Aggr. [4]: 1.03%
SEC-HPLC Analysis % Frag. [4]: 1.84%
SEC-HPLC Analysis % Monomer [4]: 97.13%
Antigen Binding ELISA, EC50 [5]: 0.0116 µg/mL
EC50 [5]: 0.08 nM
